Publication PMC4844972, “A dynamic interaction process between KaiA and KaiC is critical to the cyanobacterial circadian oscillator” (Scientific Reports, 2016)
Positions count from the first letter of the chain named.

B1: wild-type KaiA of Synechococcus elongatus PCC 7942 (natural protein)
chain: MLSQIAICIWVESTAILQDCQRALSADRYQLQVCESGEMLLEYAQTHRDQIDCLILVAANPSFRAVVQQLCFEGVVVPAIVVGDRDSEDPDEPAKEQLYHSAELHLGIHQLEQLPYQVDAALAEFLRLAPVETMADHIMLMGANHDPELSSQQRDLAQRLQERLGYLGVYYKRDPDRFLRNLPAYESQKLHQAMQTSYREIVLSYFSPNSNLNQSIDNFVNMAFFADVPVTKVVEIHMELMDEFAKKLRVEGRSEDILLDYRLTLIDVIAHLCEMYRRSIPRET
notes: KaiA, Synechococcus elongatus PCC 7942; expressed from pGEX-6P-1; Plasmid provided by Dr. Carl Johnson; also called the wild-type KaiA
B2: KaiA-3-1 (natural protein, Synechococcus elongatus PCC 7942)
chain: B1 chain with R253H, S254K, I257F
notes: KaiA, Synechococcus elongatus PCC 7942, with the mutations of Cluster III; The oligomer state is said to be the same as that of the wild type; also called KaiA mutant of Cluster III
B3: KaiA-2-1 (natural protein, Synechococcus elongatus PCC 7942)
chain: B1 chain with L259Q
notes: KaiA, Synechococcus elongatus PCC 7942, with the mutation of Cluster II; The oligomer state is said to be the same as that of the wild type; also called KaiA mutant of Cluster II
B4: KaiA-1-1 (natural protein, Synechococcus elongatus PCC 7942)
chain: B1 chain with E239N, A245W
notes: KaiA, Synechococcus elongatus PCC 7942, with the mutations of Cluster I; R249 belongs to the cluster but was not mutated; The oligomer state is said to be the same as that of the wild type; also called KaiA mutant of Cluster I
B5: wild-type KaiC of Synechococcus elongatus PCC 7942 (enzyme)
chain: MTSAEMTSPNNNSEHQAIAKMRTMIEGFDDISHGGLPIGRSTLVSGTSGTGKTLFSIQFLYNGIIEFDEPGVFVTFEETPQDIIKNARSFGWDLAKLVDEGKLFILDASPDPEGQEVVGGFDLSALIERINYAIQKYRARRVSIDSVTSVFQQYDASSVVRRELFRLVARLKQIGATTVMTTERIEEYGPIARYGVEEFVSDNVVILRNVLEGERRRRTLEILKLRGTSHMKGEYPFTITDHGINIFPLGAMRLTQRSSNVRVSSGVVRLDEMCGGGFFKDSIILATGATGTGKTLLVSRFVENACANKERAILFAYEESRAQLLRNAYSWGMDFEEMERQNLLKIVCAYPESAGLEDHLQIIKSEINDFKPARIAIDSLSALARGVSNNAFRQFVIGVTGYAKQEEITGLFTNTSDQFMGAHSITDSHISTITDTIILLQYVEIRGEMSRAINVFKMRGSWHDKAIREFMISDKGPDIKDSFRNFERIISGSPTRITVDEKSELSRIVRGVQEKGPES
notes: KaiC, Synechococcus elongatus PCC 7942; expressed from pGEX-6P-1; The sample is a mixture of phosphorylated and de-phosphorylated KaiC (sites T432 and S431); also called the wild-type KaiC
B6: KaiC-2-1 (enzyme, Synechococcus elongatus PCC 7942)
chain: B5 chain with I497V, V499T, S503T
notes: KaiC, Synechococcus elongatus PCC 7942, with the mutations of Cluster II; The oligomer state is said to be the same as that of the wild type; also called KaiC mutant of Cluster II
B7: KaiC-1-1 (enzyme, Synechococcus elongatus PCC 7942)
chain: B5 chain with K502R
notes: KaiC, Synechococcus elongatus PCC 7942, with the mutation of Cluster I; The oligomer state is said to be the same as that of the wild type; also called KaiC mutant of Cluster I
B8: KaiC-3-1 (enzyme, Synechococcus elongatus PCC 7942)
chain: B5 chain with S493V, T495H
notes: KaiC, Synechococcus elongatus PCC 7942, with the mutations of Cluster III; The oligomer state is said to be the same as that of the wild type; also called KaiC mutant of Cluster III

Columns and labels:
[1] = biological target: KaiC (Synechococcus elongatus) (UniProt Q79PF4); conditions: cited from earlier work
[2] = biological target: the molecule itself; assay: native gel or EMSA; 8% native gel of the purified proteins, to analyse their oligomerization statuses

Molecule | Kd [1] [nM] | binding result [2]
KaiA (from UniProt Q79PF6) | 2500 | –
B1 | – | binds
B2 | – | binds
B3 | – | binds
B4 | – | binds
B5 | – | binds
B6 | – | binds
B7 | – | binds
B8 | – | binds
